Here are results for two molecules from publication PMC10023570, “Essential protein P116 extracts cholesterol and other indispensable lipids for Mycoplasmas” (Nature Structural & Molecular Biology, 2023).

Data set [1] deals with P116 W681A (M. pneumoniae) (UniProt P75556). Nature of the data set: SEC-MALS; Superose 6 10/300 GL column, DAWN HELEOS II MALS detector and Optilab T-REX refractive index detector. A general note: In gel filtration, larger molecules generally elute earlier.
Data set [2] deals with the molecule itself. The data set is described as above.

Regarding “P116 W681A (from UniProt P75556 30-957) (domain or fragment)”, the rate of dimers to monomers (dimers:monomers) in data set [1] was 0.25.

B1: P116 (30–957), ectodomain of P116 (MPN_213) from Mycoplasma pneumoniae (domain or fragment)
chain: NKTHQVEHESEQSDFQDIRFGLNSVKLPKAQPAAATRITVENGTDKLVNYKSSPQQLFLAKNALKDKLQGEFDKFLSDAKAFPALTADLQEWVDQQLFNPNQSFFDLSAPRSNFTLSSDKKASLDFIFRFTNFTESVQLLKLPEGVSVVVDSKQSFDYYVNASAQKLLVLPLSLPDYTLGLNYMFDHITLNGKVVNKFSFNPFKTNLNLAFSNVYNGVDVFEAQKNLVGKGKYLNTHVKAEDVKKDVNANIKNQFDIAKIIAELMGKALKEFGNQQEGQPLSFLKVMDKVKEDFEKLFNLVRPGLGKFVKDLIQSSSQAENKITVYKLIFDNKKTILNLLKELSIPELNSSLGLVDVLFDGITDSDGLYERLQSFKDLIVPAVKTNEKTAALSPLIEELLTQKDTYVFDLIQKHKGILTNLLKNFLADFQKSTPFMADQVAIFTELFDNEGAFDLFGEADFVDKIAELFLTKRTVKNGEKIETKDSLLVTSLKSLLGEKVAALGDLLDSYIFKNELLNRSVEVAKAEAKDTKGATDYKKEQAKALKKLFKHIGENTLSKTNLDKITLKEVKNTENVELEETETTLKVKKLDVEYKVELGNFEIKNGLIKAMLEFLPDTKDLETTLDKLLFKGESYKAMKDKYIKEGFPGYGWAKGVVPGAFESIENTFKSAIDKTKSIRDLFGDMLFGNDLSSVKETDSFITLGGSFDIKYGGENLNVLPAYYSLINSEIGYQIIGVDTTIDATKVKVELKNKEYKGKSPAINGQVKLSQSFFNVWTNMFDSITKQIFQKKYEFKDNIQVFARNEDNTSRLELDISDPEQRVIPFAFVDGFGIQLKAVDKNITKEAGNTEPKSPVIQLYEALNKEKDQKQQSKQSPKQLDTKTQLGYLLKLGDNWSKDDYKSLIDDTIINNNYLEASFNSKITVDRLG
notes: source: E. coli B834 (DE3), purified (HisTrap, Superdex 200)
In the case of B1, the stoichiometry N (in general, the number of molecules, sites or subunits per partner or assembly) in data set [2] is 2.
